Measured values: paper PMC9579204, “A simple thermodynamic description of phase separation of Nup98 FG domains” (Nature Communications, 2022)

Assays:
[1] = target: the molecule itself; assay: co-sedimentation; centrifugation assay of phase separation: FG domain diluted into 20 mM NaPi pH 6.8, 5 mM DTT, NaCl, concentration and temperature as in the figures; 21,130 × g, 30 min; pellet (FG phase) and supernatant by SDS-PAGE/Coomassie; saturation concentration = concentration left in the supernatant (Formula Set 2)
[2] = target: the molecule itself; assay: dynamic light scattering; self-association as LCST-type phase separation; prf.GLFG_(52×12) diluted into 20 mM NaPi pH 6.8 with 75-1200 mM NaCl, temperature raised by 1 °C per min from 2 to 40 °C; van't Hoff analysis (Formula Set 1)

Row | Protein | binding result [1] | dH of phase separation when [NaCl] = 0 (van't Hoff) [2]
1 | prf.GLFG_(26×12) (domain or fragment, also called N = 26; 26× repeats; source: E. coli NEB Express, soluble fraction, purified (Ni(II) chelate column, on-column bdSENP1 cleavage, lyophilized); not shown: histidine tag with a SUMO cleavage site, N-terminal, cleaved) GGLFGGNTQPATGGLFGGNTQPATGGLFGGNTQPATGGLFGGNTQPATGGLFGGNTQPATGGLFGGNTQPATGGLFGGNTQPATGGLFGGNTQPATGGLFGGNTQPATGGLFGGNTQPATGGLFGGNTQPATGGLFGGNTQPATGGLFGGNTQPATGGLFGGNTQPATGGLFGGNTQPATGGLFGGNTQPATGGLFGGNTQPATGGLFGGNTQPATGGLFGGNTQPATGGLFGGNTQPATGGLFGGNTQPATGGLFGGNTQPATGGLFGGNTQPATGGLFGGNTQPATGGLFGGNTQPATGGLFGGNTQPAT | binds | –
2 | prf.GLFG_(37×12) (domain or fragment, also called N = 37; 37× repeats; not shown: histidine tag with a SUMO cleavage site, N-terminal, cleaved) GGLFGGNTQPATGGLFGGNTQPATGGLFGGNTQPATGGLFGGNTQPATGGLFGGNTQPATGGLFGGNTQPATGGLFGGNTQPATGGLFGGNTQPATGGLFGGNTQPATGGLFGGNTQPATGGLFGGNTQPATGGLFGGNTQPATGGLFGGNTQPATGGLFGGNTQPATGGLFGGNTQPATGGLFGGNTQPATGGLFGGNTQPATGGLFGGNTQPATGGLFGGNTQPATGGLFGGNTQPATGGLFGGNTQPATGGLFGGNTQPATGGLFGGNTQPATGGLFGGNTQPATGGLFGGNTQPATGGLFGGNTQPATGGLFGGNTQPATGGLFGGNTQPATGGLFGGNTQPATGGLFGGNTQPATGGLFGGNTQPATGGLFGGNTQPATGGLFGGNTQPATGGLFGGNTQPATGGLFGGNTQPATGGLFGGNTQPATGGLFGGNTQPAT | binds | –
3 | prf.GLFG_(70×12) (domain or fragment, also called N = 70; not shown: histidine tag with a SUMO cleavage site, N-terminal, cleaved) GGLFGGNTQPATGGLFGGNTQPATGGLFGGNTQPATGGLFGGNTQPATGGLFGGNTQPATGGLFGGNTQPATGGLFGGNTQPATGGLFGGNTQPATGGLFGGNTQPATGGLFGGNTQPATGGLFGGNTQPATGGLFGGNTQPATGGLFGGNTQPATGGLFGGNTQPATGGLFGGNTQPATGGLFGGNTQPATGGLFGGNTQPATGGLFGGNTQPATGGLFGGNTQPATGGLFGGNTQPATGGLFGGNTQPATGGLFGGNTQPATGGLFGGNTQPATGGLFGGNTQPATGGLFGGNTQPATGGLFGGNTQPATGGLFGGNTQPATGGLFGGNTQPATGGLFGGNTQPATGGLFGGNTQPATGGLFGGNTQPATGGLFGGNTQPATGGLFGGNTQPATGGLFGGNTQPATGGLFGGNTQPATGGLFGGNTQPATGGLFGGNTQPATGGLFGGNTQPATGGLFGGNTQPATGGLFGGNTQPATGGLFGGNTQPATGGLFGGNTQPATGGLFGGNTQPATGGLFGGNTQPATGGLFGGNTQPATGGLFGGNTQPATGGLFGGNTQPATGGLFGGNTQPATGGLFGGNTQPATGGLFGGNTQPATGGLFGGNTQPATGGLFGGNTQPATGGLFGGNTQPATGGLFGGNTQPATGGLFGGNTQPATGGLFGGNTQPATGGLFGGNTQPATGGLFGGNTQPATGGLFGGNTQPATGGLFGGNTQPATGGLFGGNTQPATGGLFGGNTQPATGGLFGGNTQPATGGLFGGNTQPATGGLFGGNTQPATGGLFGGNTQPATGGLFGGNTQPATGGLFGGNTQPATGGLFGGNTQPATGGLFGGNTQPAT | binds | –
4 | prf.GLFG_(52×12) (domain or fragment, Engineered after the MacNup98A FG domain, GLEBS deleted; also called perfectly repeated FG domain; N = 52; source: E. coli NEB Express, extracted from inclusion bodies, purified (Ni chromatography, SUMO protease cleavage, lyophilized); not shown: histidine tag with a SUMO cleavage site, N-terminal, cleaved) GGLFGGNTQPATGGLFGGNTQPATGGLFGGNTQPATGGLFGGNTQPATGGLFGGNTQPATGGLFGGNTQPATGGLFGGNTQPATGGLFGGNTQPATGGLFGGNTQPATGGLFGGNTQPATGGLFGGNTQPATGGLFGGNTQPATGGLFGGNTQPATGGLFGGNTQPATGGLFGGNTQPATGGLFGGNTQPATGGLFGGNTQPATGGLFGGNTQPATGGLFGGNTQPATGGLFGGNTQPATGGLFGGNTQPATGGLFGGNTQPATGGLFGGNTQPATGGLFGGNTQPATGGLFGGNTQPATGGLFGGNTQPATGGLFGGNTQPATGGLFGGNTQPATGGLFGGNTQPATGGLFGGNTQPATGGLFGGNTQPATGGLFGGNTQPATGGLFGGNTQPATGGLFGGNTQPATGGLFGGNTQPATGGLFGGNTQPATGGLFGGNTQPATGGLFGGNTQPATGGLFGGNTQPATGGLFGGNTQPATGGLFGGNTQPATGGLFGGNTQPATGGLFGGNTQPATGGLFGGNTQPATGGLFGGNTQPATGGLFGGNTQPATGGLFGGNTQPATGGLFGGNTQPATGGLFGGNTQPATGGLFGGNTQPATGGLFGGNTQPATGGLFGGNTQPAT | – | 24.4 kcal/mol
5 | prf.GLFG_(44×12) (domain or fragment, also called N = 44; not shown: histidine tag with a SUMO cleavage site, N-terminal, cleaved) GGLFGGNTQPATGGLFGGNTQPATGGLFGGNTQPATGGLFGGNTQPATGGLFGGNTQPATGGLFGGNTQPATGGLFGGNTQPATGGLFGGNTQPATGGLFGGNTQPATGGLFGGNTQPATGGLFGGNTQPATGGLFGGNTQPATGGLFGGNTQPATGGLFGGNTQPATGGLFGGNTQPATGGLFGGNTQPATGGLFGGNTQPATGGLFGGNTQPATGGLFGGNTQPATGGLFGGNTQPATGGLFGGNTQPATGGLFGGNTQPATGGLFGGNTQPATGGLFGGNTQPATGGLFGGNTQPATGGLFGGNTQPATGGLFGGNTQPATGGLFGGNTQPATGGLFGGNTQPATGGLFGGNTQPATGGLFGGNTQPATGGLFGGNTQPATGGLFGGNTQPATGGLFGGNTQPATGGLFGGNTQPATGGLFGGNTQPATGGLFGGNTQPATGGLFGGNTQPATGGLFGGNTQPATGGLFGGNTQPATGGLFGGNTQPATGGLFGGNTQPATGGLFGGNTQPATGGLFGGNTQPAT | binds | –
